Results taken from patent US20200054723A1 (ALLAKOS, published 2020).
Residue numbers refer to the chain shown, from its start. “And” between values parts separate entries of the source, which are not always exact repeats. Equal values may be shown once.

B1: chimeric 2E2 antibody (antibody, human IgG1, kappa)
heavy: not shown
light: QIILTQSPAIMSASPGEKVSITCSATSSVSYMHWFQQKPGTSPKLWIYSTSNLASGVPVRFSGSGSGTSYSLTISRMEAEDAATYYCQQRSSYPFTFGSGTKLEIKRTVAAPSVFIFPPSDEQLKSGTASVVCLLNNFYPREAKVQWKVDNALQSGNSQESVTEQDSKDSTYSLSSTLTLSKADYEKHKVYACEVTHQGLSSPVTKSFNRGEC
notes: human IgG1/kappa; also called ch2E2; ch2E2 purified
B2: RHE S-GKB (antibody, human IgG1, V domains shown)
VH: EVQLVESGGGLVQPGGSLRLSCAASGFSLTIYGAHWVRQAPGKGLEWVGVIWAGGSTNYNSALMSRFTISKDNSKNTVYLQMNSLRAEDTAVYYCARDGSSPYYYGMEYWGQGTTVTVSS
VL: EIILTQSPATLSLSPGERATLSCSATSSVSYMHWFQQKPGQAPRLWIYSTSNLASGVPARFSGSGSGTDYTLTISSLEPEDFAVYYCQQRSSYPFTFGPGTKLDIK
notes: human IgG1/kappa
B3: cVHKB (antibody, human IgG1, V domains shown)
VH: QVQLKESGPGLVAPSQSLSITCTVSGFSLTIYGAHWVRQPPGKGLEWLGVIWAGGSTNYNSALMSRLSISKDNSKSQVFLKINSLQTDDTALYYCARDGSSPYYYSMEYWGQGTSVTVSS
VL: B2 VL
notes: human IgG1/kappa
B4: HB2KA (antibody, human IgG1, V domains shown)
VH: QVQLQESGPGLVKPSETLSLTCTVSGFSLTIYGAHWVRQPPGKGLEWLGVIWAGGSTNYNSALMSRLSISKDNSKNQVSLKLSSVTAADTAVYYCARDGSSPYYYSMEYWGQGTLVTVSS
VL: B2 VL with I3V, W46L, V57I, Y70F
notes: human IgG1/kappa
B5: HA2KB (antibody, human IgG1, V domains shown)
VH: B4 VH with F27G, L29I, T30S, V37I, L48I, L67V, S68T, K71V, N73T, V78F
VL: B2 VL
notes: human IgG1/kappa
B6: HBcVK (antibody, human IgG1, V domains shown)
VH: B2 VH with A24V, V48L, F67L, T68S, G106S
VL: QIILTQSPAIMSASPGEKVSITCSATSSVSYMHWFQQKPGTSPKLWIYSTSNLASGVPVRFSGSGSGTSYSLTISRMEAEDAATYYCQQRSSYPFTFGSGTKLEIK
notes: human IgG1/kappa
B7: RHE Y-VKA (antibody, human IgG1, V domains shown)
VH: B2 VH with G106S, Y109V
VL: B2 VL with I3V, W46L, V57I, Y70F
notes: human IgG1/kappa
B8: HB2KC (antibody, human IgG1, V domains shown)
VH: B4 VH
VL: B2 VL with W46L, V57I, Y70F
notes: human IgG1/kappa
B9: RHE Y-VKE (antibody, human IgG1, V domains shown)
VH: B2 VH with G106S, Y109V
VL: B2 VL with I3V, W46L, Y70F
notes: human IgG1/kappa
B10: RHE Y-VKG (antibody, human IgG1, V domains shown)
VH: B2 VH with G106S, Y109V
VL: B2 VL with I3V, F35Y, W46L, V57I, Y70F
notes: human IgG1/kappa
B11: RHE Triple-KE (antibody, human IgG1, V domains shown)
VH: B2 VH with E108D, Y109V
VL: B2 VL with I3V, W46L, Y70F
notes: human IgG1/kappa
B12: RHE Y-VKC (antibody, human IgG1, V domains shown)
VH: B2 VH with G106S, Y109V
VL: B2 VL with W46L, V57I, Y70F
notes: human IgG1/kappa
B13: RHE Y-VKB (antibody, human IgG1, V domains shown)
VH: B2 VH with G106S, Y109V
VL: B2 VL
notes: human IgG1/kappa
B14: HB2KG (antibody, V domains shown)
VH: B4 VH
VL: B2 VL with I3V, F35Y, W46L, V57I, Y70F
notes: human IgG1/kappa
B15: HA2KFmut (antibody, human IgG1, V domains shown)
VH: B4 VH with F27G, L29I, T30S, V37I, L48I, L67V, S68T, K71V, N73T, V78F
VL: B2 VL with I3V, W46L, V57I, F95Y
notes: human IgG1/kappa
B16: RHE S-GKF (antibody, human IgG1, V domains shown)
VH: B2 VH
VL: B2 VL with I3V, W46L, V57I
notes: human IgG1/kappa
B17: RHE S-GKD (antibody, human IgG1, V domains shown)
VH: B2 VH
VL: B2 VL with I3V, V57I, Y70F
notes: human IgG1/kappa
B18: RHE Y-VKFmut (antibody, human IgG1, V domains shown)
VH: B2 VH with G106S, Y109V
VL: B2 VL with I3V, W46L, V57I, F95Y
notes: human IgG1/kappa
B19: HAcVK (antibody, human IgG1, V domains shown)
VH: B2 VH with G49S, G106S
VL: B6 VL
notes: human IgG1/kappa
B20: RHE Triple-KA (antibody, human IgG1, V domains shown)
VH: B2 VH with E108D, Y109V
VL: B2 VL with I3V, W46L, V57I, Y70F
notes: human IgG1/kappa
B21: RHE Y-VKF (antibody, human IgG1, V domains shown)
VH: B2 VH with G106S, Y109V
VL: B2 VL with I3V, W46L, V57I
notes: human IgG1/kappa
B22: RHE S-GKC (antibody, human IgG1, V domains shown)
VH: B2 VH
VL: B2 VL with W46L, V57I, Y70F
notes: human IgG1/kappa
B23: RHE S-GKG (antibody, human IgG1, V domains shown)
VH: B2 VH
VL: B2 VL with I3V, F35Y, W46L, V57I, Y70F
notes: human IgG1/kappa
B24: RHE Triple-KD (antibody, human IgG1, V domains shown)
VH: B2 VH with E108D, Y109V
VL: B2 VL with I3V, V57I, Y70F
notes: human IgG1/kappa
B25: RHE Y-VKD (antibody, human IgG1, V domains shown)
VH: B2 VH with G106S, Y109V
VL: B2 VL with I3V, V57I, Y70F
notes: human IgG1/kappa
B26: chimeric 2E2 Fab fragment (Fab)
VH: B3 VH
light: B1 light
notes: Fab made by papain digestion of the human IgG1 chimeric antibody
B27: mouse 2E2 Fab fragment (Fab)
VH: B3 VH
light: QIILTQSPAIMSASPGEKVSITCSATSSVSYMHWFQQKPGTSPKLWIYSTSNLASGVPVRFSGSGSGTSYSLTISRMEAEDAATYYCQQRSSYPFTFGSGTKLEIKADAAPTVSIFPPSSEQLTSGGASVVCFLNNFYPKDINVKWKIDGSERQNGVLNSWTDQDSKDSTYSMSSTLTLTKDEYERHNSYTCEATHKTSTSPIVKSFNRNEC
notes: Fab made by papain digestion of the murine IgG1; also called murine 2E2 Fab

biological target: T1, recombinant human Siglec-8 extracellular domain (ECD) (human, UniProt Q9NYZ4 17-363); assay: ELISA, coated Siglec-8 ECD
T1 construct: extracellular domain; also called Siglec-8 ECD; full Siglec-8 ECD
Experimental: Binding of recombinant human Siglec-8 extracellular domain (ECD) by chimeric 2E2 and chimeric 2C4 IgG1K antibodies was measured by ELISA. […] Three-fold serial dilutions of a chimeric antibody (ch2E2 or ch2C4) or mouse antibody (m2E2 or m2C4) in 0.2% BSA/TBS (starting concentration was 5000 ng/mL) was added to each coated well. The plate was incubated for 2 hours at room temperature and the wells were subsequently washed before addition of goat-anti-human Fc peroxidase conjugate (1:10000 dilution) or anti-mouse Fc peroxidase conjugate (1:30000 dilution) diluted in 0.2% BSA/TBS solution. The plate was incubated for 45 minutes at room temperature, followed by washing and addition of 30 μL K-blue HRP substrate (SkyBio Ltd) to each well. After incubation at room temperature for 15 minutes, the reaction was stopped by adding 10 μL of Red Stop solution (SkyBio Ltd) to each well. The optical density or the experimental samples was read at 650 nm using the ELISA reader PHERAStar FS (BMG Labtech).
The fully humanized antibody heavy and light chains were combined and compared with the chimeric antibody to determine if replacing the 4 Å and canonical framework residues and interface residues was sufficient to successfully humanize 2E2. Expi293 cells were co-transfected with combinations of different humanized light chain vectors in association with different humanized heavy chain vectors. Siglec-8 antigen was used to measure antibody binding by ELISA as described in Example 1.

T1 sequence (Q9NYZ4 17-363): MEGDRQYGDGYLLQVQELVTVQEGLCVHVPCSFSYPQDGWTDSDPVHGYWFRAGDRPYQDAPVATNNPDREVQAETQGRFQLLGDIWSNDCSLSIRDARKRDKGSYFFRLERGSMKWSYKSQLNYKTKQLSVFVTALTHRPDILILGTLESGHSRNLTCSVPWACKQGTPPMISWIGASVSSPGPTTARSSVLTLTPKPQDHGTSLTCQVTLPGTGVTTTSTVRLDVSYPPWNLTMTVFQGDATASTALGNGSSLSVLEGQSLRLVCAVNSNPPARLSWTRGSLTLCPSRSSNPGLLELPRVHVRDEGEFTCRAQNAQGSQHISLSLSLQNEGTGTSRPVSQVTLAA

Row | Binder | EC50
1 | B1 | 0.062 nM and 0.044 nM and 0.043 nM
2 | B2 | 627 nM
3 | B3 | 0.027 nM
4 | B4 | 0.051 nM
5 | B5 | 124 nM
6 | B6 | 0.066 nM
7 | B7 | 0.088 nM
8 | B8 | 0.101 nM
9 | B9 | 0.07 nM
10 | B10 | 8.81 nM
11 | B11 | 34.1 nM
12 | B12 | 0.215 nM
13 | B13 | 0.306 nM
14 | B14 | 0.227 nM
15 | B15 | 31.6 nM
16 | B16 | 3.28 nM
17 | B17 | 8.65 nM
18 | B18 | 0.398 nM
19 | B19 | 0.067 nM
20 | B20 | 18.6 nM
21 | B21 | 0.091 nM
22 | B22 | 173 nM
23 | B23 | 33.5 nM
24 | B24 | 13.2 nM
25 | B25 | 0.283 nM

biological target: T2, Siglec-8-Fc tagged protein (human Siglec-8 extracellular domain fused to an immunoglobulin Fc region) (human); assay: BLI (Octet Red 384), Siglec-8-Fc on anti-human capture sensors, Fab in solution
T2 construct: also called Siglec-8 Fc fusion protein
Experimental: Antibody affinity determination was also carried out by bio-layer interferometry (ForteBio). Binding of mouse, chimeric and humanized anti-Siglec-8 antibody Fab fragments to human Siglec-8 protein was measured on a ForteBio Octet Red 384. The assay was conducted at 25° C., at an RPM of 1000 in assay buffer. […] Fab fragments (antibodies were digested with Thermo-Pierce immobilized papain per manufacturer's specifications) were diluted in assay buffer from 50 nM to 1.56 nM with 2× dilutions. The Siglec-8-Fc tagged protein was immobilized on Anti-Human-Capture sensors at 100 nM in assay buffer for 3 min to a change in nm of approximately 1.2. Two-minute associations were conducted, followed by 10-minute dissociations. Results were blanked with an empty reference AHC sensor, and analyzed in ForteBio analysis software with 1:1 global fit parameters.

T2 sequence (chain, as listed by the source limits assumed): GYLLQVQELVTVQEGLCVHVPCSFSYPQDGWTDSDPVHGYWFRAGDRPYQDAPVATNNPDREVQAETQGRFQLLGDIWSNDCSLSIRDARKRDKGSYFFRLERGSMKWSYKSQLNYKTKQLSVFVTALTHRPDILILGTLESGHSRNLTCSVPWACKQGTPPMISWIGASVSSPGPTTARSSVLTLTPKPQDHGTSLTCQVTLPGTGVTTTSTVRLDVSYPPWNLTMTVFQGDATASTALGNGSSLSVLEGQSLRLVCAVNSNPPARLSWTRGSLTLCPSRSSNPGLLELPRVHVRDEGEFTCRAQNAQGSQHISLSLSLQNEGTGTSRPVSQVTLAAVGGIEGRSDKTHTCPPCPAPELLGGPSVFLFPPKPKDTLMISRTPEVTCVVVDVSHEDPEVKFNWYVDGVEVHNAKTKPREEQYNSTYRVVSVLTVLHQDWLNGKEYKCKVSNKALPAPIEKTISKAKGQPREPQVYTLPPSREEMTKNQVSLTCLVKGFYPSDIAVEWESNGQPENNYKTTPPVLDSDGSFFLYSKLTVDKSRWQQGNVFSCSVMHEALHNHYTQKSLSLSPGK

Row | Binder | Kd [nM] | koff [s⁻¹] | kon [M⁻¹ s⁻¹]
26 | B26 | 0.585 | 0.000556 | 951000
27 | B27 | 0.536 | 0.000612 | 1.14e+06

biological target: T3, Dimeric Siglec-8 (human Siglec-8 ECD protein) (human, UniProt Q9NYZ4 17-363); assay: SPR (Biacore), antibody captured, dimeric Siglec-8 as analyte, 1:1 global fit (avidity)
T3 construct: extracellular domain; Analyte of the Biacore avidity assay
Experimental: Antibody avidity determination was carried out by SPR analysis using a Biacore T200. Binding of human Siglec-8 ECD protein to mouse, chimeric and humanized anti-Siglec-8 antibodies was measured on a […]. The capture antibodies (goat-anti-human-Fc and goat-anti-mouse-Fc from Jackson Immunoresearch) were immobilized on a CM5 chip according to manufacturer's protocol (Biacore, GE). Flow-cell 1, 2 and 3 were immobilized with anti-human, and flow cell 4 with anti-mouse antibodies. The assay was conducted at 25° C., at a flow rate of […]. Assay buffer was 20 mM Tris-HCl pH 8.3, 150 mM Sodium Chloride, 0.05% Polysorbate 20, 10% glycerol, 0.1% BSA, made in ultrapure water. Dimeric Siglec-8 (impurities of monomeric and oligomeric Siglec-8 were removed by size-exclusion chromatography) was diluted in assay buffer from 15 nM to […] with 2× dilutions. Antibodies were captured to a change of approximately 120 RU. Six-minute high performance injections were conducted, followed by 120-minute dissociations. Flow cells were regenerated with 50 mM glycine pH 1.5. Results were double blanked with an empty reference cell and multiple assay buffer injections, and analyzed with 1:1 global fit parameters.

T3 sequence (Q9NYZ4 17-363): as the sequence (Q9NYZ4 17-363) above

Row | Binder | Kd [nM] | koff [s⁻¹] | kon [M⁻¹ s⁻¹]
28 | B1 | 0.016 | 1.32e-05 | 851000
